Assay results published in US20260132182A1 (published 2026).
Starred links: 1 amine or outer side, 2 acyl side, 3 side chain; linkers in the order of their positions; H or OH if unused. Non-standard residues stand in square brackets, D forms with d. Groups on a side chain read outwards from the residue. *: point of attachment. Hexadecanoyl(16-SO3H) = O=C(CCCCCCCCCCCCCCCS(=O)(=O)O)*; C20 diacid = O=C(O)CCCCCCCCCCCCCCCCCCC(=O)*; C18 diacid = O=C(O)CCCCCCCCCCCCCCCCC(=O)*; C16 diacid = O=C(O)CCCCCCCCCCCCCCC(=O)*; γGlu = O=C(O)[C@H](CCC(=O)[*:2])N[*:1]; εLys = N[C@@H](CCCCN[*:1])C(=O)[*:2]; AEEA = NCCOCCOCC(=O)O; Aib = CC(C)(N)C(=O)O; Ahx = NCCCCCC(=O)O

Tests used:
[1] = target: human GLP-1 receptor (human, UniProt P43220 24-463); assay: cell-based or functional assay
[2] = target: T1, human amylin-3 (a) receptor (human, UniProt P30988 25-474; O60896 24-148); assay: cell-based or functional assay
T1 sequence (looked up) 1: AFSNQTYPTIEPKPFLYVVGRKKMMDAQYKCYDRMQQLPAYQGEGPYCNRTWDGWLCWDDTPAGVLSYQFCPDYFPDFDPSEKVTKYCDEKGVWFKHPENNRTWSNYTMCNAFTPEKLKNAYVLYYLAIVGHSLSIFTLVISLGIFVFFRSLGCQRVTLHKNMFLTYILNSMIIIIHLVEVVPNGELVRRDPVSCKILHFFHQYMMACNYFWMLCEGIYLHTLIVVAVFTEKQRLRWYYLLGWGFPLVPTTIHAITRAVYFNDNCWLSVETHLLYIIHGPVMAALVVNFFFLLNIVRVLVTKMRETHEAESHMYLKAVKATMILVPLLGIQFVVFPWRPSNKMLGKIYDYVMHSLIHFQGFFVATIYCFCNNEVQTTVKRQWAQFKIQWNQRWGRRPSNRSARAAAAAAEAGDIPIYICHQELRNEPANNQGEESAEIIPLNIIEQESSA
T1 sequence (looked up) 2: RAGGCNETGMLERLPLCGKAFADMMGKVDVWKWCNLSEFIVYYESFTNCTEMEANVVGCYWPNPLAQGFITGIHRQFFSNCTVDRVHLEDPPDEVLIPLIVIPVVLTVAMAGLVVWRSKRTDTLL

B1: Compound 0655 (peptide)
peptide: H[Aib]EGTFTSDVSSYLEEQAAREFIAWLVRGRK([AEEA-AEEA-γGlu-17‑(1H-tetrazol-5-yl)heptadecanoyl])GGGGEASELSTAALGRLSAELHELATLPRTETGSGSP-NH2
Question: For B1, which “Human GLP-1R potency [EC50 (pM)]” value [1] is on record?
Answer: 3 pM

Question: And the “Human AmyR3 potency [EC50 (pM)]” value [2]?
Answer: 11.4 pM

B2: Compound 0659 (peptide)
peptide: H[Aib]EGTFTSDVSSYLEEQAAREFIAWLVRGRK([Ahx-Ahx-γGlu-C20 diacid])GGGGEASELSTAALGRLSAELHELATLPRTETGSGSP-NH2
Question: Which results are given for B2?
Answer: Human GLP-1R potency [EC50 (pM)] [1]: 4.7 pM; Human AmyR3 potency [EC50 (pM)] [2]: 11.5 pM

B3: Compound 0657 (peptide)
peptide: H[Aib]EGTFTSDVSSYLEEQAAREFIAWLVRGRK([εLys-εLys-γGlu-C20 diacid])GGGGEASELSTAALGRLSAELHELATLPRTETGSGSP-NH2
Question: For B3, which “Human GLP-1R potency [EC50 (pM)]” value [1] is on record?
Answer: 9.9 pM

Question: What about the “Human AmyR3 potency [EC50 (pM)]” value [2] of the same binder?
Answer: 10.4 pM

B4: Compound 0084 (peptide)
peptide: H[Aib]EGTFTSDVSSYLEGQAAREFIAWLVRGRGQEPK([AEEA-AEEA-γGlu-C18 diacid])GQAPEASELSTAALGRLSAELHELATLPRTETGSGSP-NH2
Question: Which results are given for B4?
Answer: Human GLP-1R potency [EC50 (pM)] [1]: 2.5 pM; Human AmyR3 potency [EC50 (pM)] [2]: 14 pM

B5: Compound 0656 (peptide)
peptide: H[Aib]EGTFTSDVSSYLEEQAAREFIAWLVRGRK([εLys-εLys-γGlu-C18 diacid])GGGGEASELSTAALGRLSAELHELATLPRTETGSGSP-NH2
Question: Which “Human GLP-1R potency [EC50 (pM)]” value [1] does the source give for B5 here?
Answer: 4.1 pM

Question: And the “Human AmyR3 potency [EC50 (pM)]” value [2]?
Answer: 13.3 pM

B6: Compound 0075 (peptide)
peptide: H[Aib]EGTFTSDVSSYLEGQAAK([AEEA-AEEA-γGlu-C16 diacid])EFIAWLVRGK([AEEA-AEEA-γGlu-C16 diacid])GGGEASELSTAALGRLSAELHELATLPRTETGSGSP-NH2
Question: B6 was tested. Which “Human GLP-1R potency [EC50 (pM)]” value [1] did it give?
Answer: 84.5 pM

Question: And the “Human AmyR3 potency [EC50 (pM)]” value [2]?
Answer: 43.9 pM

B7: Compound 0089 (peptide)
peptide: H[Aib]EGTFTSDVSSYLEEQAARK([AEEA-AEEA-γGlu-C18 diacid])FIEWLVRGK([AEEA-AEEA-γGlu-C18 diacid])GEGGEASELSTAALGRLSAELHELATLPRTETGSGSP-NH2
Question: With B7 as the binder, how does the “Human GLP-1R potency [EC50 (pM)]” value [1] read?
Answer: 5.7 pM

Question: And the “Human AmyR3 potency [EC50 (pM)]” value [2]?
Answer: 65.5 pM

B8: Compound 0085 (peptide)
peptide: H[Aib]EGTFTSDVSSYLEGQAAREFIAWLVRGRGQEPGQAPK([AEEA-AEEA-γGlu-C18 diacid])EASELSTAALGRLSAELHELATLPRTETGSGSP-NH2
Question: How did the “Human GLP-1R potency [EC50 (pM)]” value [1] turn out when B8 was run?
Answer: 2.2 pM

Question: What about the “Human AmyR3 potency [EC50 (pM)]” value [2] of the same binder?
Answer: 55.8 pM

B9: Compound 0661 (peptide)
peptide: H[Aib]EGTFTSDVSSYLEEQAAREFIAWLVRGRK([AEEA-AEEA-AEEA-γGlu-C18 diacid])GGGGEASELSTAALGRLSAELHELATLPRTETGSGSP-NH2
Question: What does the source list for B9?
Answer: Human GLP-1R potency [EC50 (pM)] [1]: 2.8 pM; Human AmyR3 potency [EC50 (pM)] [2]: 14.4 pM

B10: Compound 0086 (peptide)
peptide: H[Aib]EGTFTSDVSSYLEEQAARK([AEEA-AEEA-γGlu-C16 diacid])FIEWLVRGK([AEEA-AEEA-γGlu-C16 diacid])GEGGEASELSTAALGRLSAELHELATLPRTETGSGSP-NH2
Question: Which “Human GLP-1R potency [EC50 (pM)]” value [1] does the source give for B10 here?
Answer: 3.9 pM

Question: What about the “Human AmyR3 potency [EC50 (pM)]” value [2] of the same binder?
Answer: 78.3 pM

B11: Compound 0658 (peptide)
peptide: H[Aib]EGTFTSDVSSYLEEQAAREFIAWLVRGRK([Ahx-Ahx-γGlu-C18 diacid])GGGGEASELSTAALGRLSAELHELATLPRTETGSGSP-NH2
Question: What does the source list for B11?
Answer: Human GLP-1R potency [EC50 (pM)] [1]: 3.1 pM; Human AmyR3 potency [EC50 (pM)] [2]: 11 pM

B12: Compound 0083 (peptide)
peptide: H[Aib]EGTFTSDVSSYLEGQAAREFIAWLVRGRK([AEEA-AEEA-γGlu-C18 diacid])GQEPGQAPEASELSTAALGRLSAELHELATLPRTETGSGSP-NH2
Question: Which results are given for B12?
Answer: Human GLP-1R potency [EC50 (pM)] [1]: 5.4 pM; Human AmyR3 potency [EC50 (pM)] [2]: 46.2 pM

B13: Compound 0660 (peptide)
peptide: H[Aib]EGTFTSDVSSYLEEQAAREFIAWLVRGRK([AEEA-γGlu-C18 diacid])GGGGEASELSTAALGRLSAELHELATLPRTETGSGSP-NH2
Question: Which results are given for B13?
Answer: Human GLP-1R potency [EC50 (pM)] [1]: 3.9 pM; Human AmyR3 potency [EC50 (pM)] [2]: 12.7 pM

B14: Compound 0663 (peptide)
peptide: H[Aib]EGTFTSDVSSYLEEQAAREFIAWLVRGRK([AEEA-AEEA-AEEA-AEEA-γGlu-C20 diacid])GGGGEASELSTAALGRLSAELHELATLPRTETGSGSP-NH2
Question: What does the source list for B14?
Answer: Human GLP-1R potency [EC50 (pM)] [1]: 3.2 pM; Human AmyR3 potency [EC50 (pM)] [2]: 12.6 pM

B15: Compound 0076 (peptide)
peptide: H[Aib]EGTFTSDVSSYLEEQAARK([AEEA-AEEA-γGlu-C16 diacid])FIAWLVRGK([AEEA-AEEA-γGlu-C16 diacid])GGGEASELSTAALGRLSAELHELATLPRTETGSGSP-NH2
Question: Which results are given for B15?
Answer: Human GLP-1R potency [EC50 (pM)] [1]: 1.7 pM; Human AmyR3 potency [EC50 (pM)] [2]: 46.4 pM

B16: Compound 0010 (peptide)
peptide: H[Aib]EGTFTSDVSSYLEGQAAREFIAWLVRGRGEGEGEK([AEEA-AEEA-γGlu-C18 diacid])EASELSTAALGRLSAELHELATLPRTETGSGSP-NH2
Question: Which results are given for B16?
Answer: Human GLP-1R potency [EC50 (pM)] [1]: 5.4 pM; Human AmyR3 potency [EC50 (pM)] [2]: 37 pM

B17: Compound 0662 (peptide)
peptide: H[Aib]EGTFTSDVSSYLEEQAAREFIAWLVRGRK([AEEA-AEEA-AEEA-AEEA-γGlu-C18 diacid])GGGGEASELSTAALGRLSAELHELATLPRTETGSGSP-NH2
Question: What does the source list for B17?
Answer: Human GLP-1R potency [EC50 (pM)] [1]: 3 pM; Human AmyR3 potency [EC50 (pM)] [2]: 14.6 pM

B18: Compound 0654 (peptide)
peptide: H[Aib]EGTFTSDVSSYLEEQAAREFIAWLVRGRK([AEEA-AEEA-γGlu-Hexadecanoyl(16-SO3H)])GGGGEASELSTAALGRLSAELHELATLPRTETGSGSP-NH2
Question: Which results are given for B18?
Answer: Human GLP-1R potency [EC50 (pM)] [1]: 2.9 pM; Human AmyR3 potency [EC50 (pM)] [2]: 11.3 pM

B19: Compound 0077 (peptide)
peptide: H[Aib]EGTFTSDVSSYLEEQAARK([AEEA-AEEA-γGlu-C16 diacid])FIAWLVK([AEEA-AEEA-γGlu-C16 diacid])GRGGGEASELSTAALGRLSAELHELATLPRTETGSGSP-NH2
Question: With B19 as the binder, how does the “Human GLP-1R potency [EC50 (pM)]” value [1] read?
Answer: 2.1 pM

Question: And the “Human AmyR3 potency [EC50 (pM)]” value [2]?
Answer: 25.7 pM

B20: Compound 0087 (peptide)
peptide: HGEGTFTSDVSSYLEEQAARK([AEEA-AEEA-γGlu-C16 diacid])FIEWLVRGK([AEEA-AEEA-γGlu-C16 diacid])GEGGEASELSTAALGRLSAELHELATLPRTETGSGSP-NH2
Question: What does the source list for B20?
Answer: Human GLP-1R potency [EC50 (pM)] [1]: 23.8 pM; Human AmyR3 potency [EC50 (pM)] [2]: 97.9 pM

B21: Compound 0074 (peptide)
peptide: H[Aib]EGTFTSDVSSYLEEQAARK([AEEA-AEEA-γGlu-C16 diacid])FIAWLVRGRGGK([AEEA-AEEA-γGlu-C16 diacid])EASELSTAALGRLSAELHELATLPRTETGSGSP-NH2
Question: Which “Human GLP-1R potency [EC50 (pM)]” value [1] does the source give for B21 here?
Answer: 0.8 pM

Question: And the “Human AmyR3 potency [EC50 (pM)]” value [2]?
Answer: 60.9 pM
